From patent US20210040194A1 (AstraZeneca / MedImmune, published 2021)
Changes are numbered by the printed parent chain.

Columns and labels:
Human ANG-2 (huAng2) [1] = molecular target: T1, Human ANG-2 (huAng2) (human, UniProt O15123 19-496, limits assumed); test: KinExA equilibrium, alternate model (ref [IgG])
T1 construct: also called human Ang2-biotin
T1 sequence (looked up): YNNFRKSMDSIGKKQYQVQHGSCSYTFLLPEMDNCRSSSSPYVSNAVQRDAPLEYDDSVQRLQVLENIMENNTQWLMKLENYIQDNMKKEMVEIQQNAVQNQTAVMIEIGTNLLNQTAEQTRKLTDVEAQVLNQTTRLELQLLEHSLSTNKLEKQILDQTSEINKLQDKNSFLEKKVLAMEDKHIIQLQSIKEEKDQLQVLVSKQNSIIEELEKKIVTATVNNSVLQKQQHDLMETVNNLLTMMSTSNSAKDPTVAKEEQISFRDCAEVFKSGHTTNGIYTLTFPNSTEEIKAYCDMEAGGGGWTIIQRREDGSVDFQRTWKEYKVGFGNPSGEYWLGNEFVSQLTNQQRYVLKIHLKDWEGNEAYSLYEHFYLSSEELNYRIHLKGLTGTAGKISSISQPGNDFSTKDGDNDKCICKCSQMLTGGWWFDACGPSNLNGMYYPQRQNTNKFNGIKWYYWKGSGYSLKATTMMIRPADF
Protocol: (§1) Human ANG-2 (huAng2) protein was coated onto UltraLink® Biosupport beads (PIERCE, Rockford, Ill.) at concentrations of 5 mg/mL and 30 mg/mL in coating buffer (50 mM sodium carbonate buffer, pH 9). Coated beads were then separated (gentle pulse spin) from unreacted huAng2 protein solution, and blocked with 1M Tris, pH 8, containing BSA at 10 mg/mL) for approximately 15 minutes at room temperature. After this, the bead slurry was spun to remove the blocking solution, and then the block step was repeated for approximately 2 hours using fresh block buffer, and stored at 4° C. until used. Prior to use, the huAng2-coated beads were transferred to a bead vial, resuspended in approximately 27 mLs of instrument buffer (HBS-P buffer, pH 7.4; contains 10 mM HEPES, 0.15M NaCl, 0.005% P20+0.02% NaN3), and affixed to the KinExA instrument. […] These concentrations of bispecific antibody were chosen to allow measurements to be made under both receptor- and KD-controlled conditions, which would allow for more rigorous estimations of reagent activity and affinity, respectively. Two-fold serial dilutions of huAng2 protein were then titrated across nine of the tubes containing the bispecific solutions, followed by 10-fold-dilutions across two more tubes, leaving one tube as the bispecific-only, “zero” control. […]

cyno Ang2 = molecular target: T2, cyno Ang2 (cyno, UniProt A0A2K5VNX6 19-496); test: cell-based or functional assay
T2 sequence: T1 sequence (looked up) with E258G, I279V, F284L, I291V, G410A, A468G, D477G

mouse Ang2 = molecular target: T3, mouse Ang2 (mouse, UniProt O35608 19-496, limits assumed); test: cell-based or functional assay
T3 sequence (looked up): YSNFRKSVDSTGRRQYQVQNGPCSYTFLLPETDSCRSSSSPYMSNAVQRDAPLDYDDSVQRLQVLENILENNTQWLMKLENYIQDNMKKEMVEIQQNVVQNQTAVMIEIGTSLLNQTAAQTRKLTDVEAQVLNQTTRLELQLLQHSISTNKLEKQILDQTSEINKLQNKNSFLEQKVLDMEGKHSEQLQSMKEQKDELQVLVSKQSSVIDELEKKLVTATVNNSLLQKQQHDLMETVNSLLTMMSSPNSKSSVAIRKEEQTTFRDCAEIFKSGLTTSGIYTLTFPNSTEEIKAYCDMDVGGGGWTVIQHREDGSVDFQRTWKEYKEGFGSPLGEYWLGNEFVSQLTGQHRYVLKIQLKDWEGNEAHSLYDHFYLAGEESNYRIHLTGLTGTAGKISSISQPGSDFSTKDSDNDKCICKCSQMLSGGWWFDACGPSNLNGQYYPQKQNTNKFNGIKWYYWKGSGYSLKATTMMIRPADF

Human ANG-2 (huAng2) [2] = molecular target: T1, Human ANG-2 (huAng2); test: cell-based or functional assay
Human ANG-2 (huAng2) [3] = molecular target: T1, Human ANG-2 (huAng2); test: KinExA equilibrium, standard affinity model (ref [Ligand])
Protocol: as §1

B1: BiS3Ab-VEGF H1RK-ANG-2 (bispecific antibody, human IgG1, kappa)
heavy: not shown
light: EIVLTQSPATLSLSPGERATLSCRASQSVHSSYLAWYQQKPGQAPRLLIYGASSRATGIPDRFSGSGSGTDFTLTISRLEPEDFAVYYCQQSYRTPSFGQGTRLEIKRTVAAPSVFIFPPSDEQLKSGTASVVCLLNNFYPREAKVQWKVDNALQSGNSQESVTEQDSKDSTYSLSSTLTLSKADYEKHKVYACEVTHQGLSSPVTKSFNRGEC
notes: Full-length IgG (Fab arm anti-VEGF-A) with an anti-ANG-2 scFv linked to the C-terminus of each heavy chain (BiS3 format); also called BiSAb-VEGF H1RK-ANG-2; Bs3Ab-VEGF-Ang2
Kd (Human ANG-2 (huAng2) [1]): 0.00435 nM
Cyno pTie2 EC50 (nM) (cyno Ang2): 3.47 nM
Mu pTie2 EC50 (nM) (mouse Ang2): 12.2 nM
Hu pTie2 EC50 (nM), Hek293-Tie2 cells (Human ANG-2 (huAng2) [2]): 2.29 nM
Kd (Human ANG-2 (huAng2) [3]): 0.0233 nM
